Earlier results on one substance are cited in paper PMC3726680.

The target of the data set is HER2 (Homo sapiens) (UniProt P04626).

For orientation: Kd means the constant that tells how readily two partners part at equilibrium. In the case of trastuzumab, the Kd was 0.1 nM.
